Laboratory results from article PMC10966353.

Target: A/Singapore/INFIMH-16-0019/2016 hemagglutinin with a C-terminal sfGFP, GCN4 trimerization domain and Strep-tag (influenza A virus A/Singapore/INFIMH-16-0019/2016)
Experiment: negative stain electron microscopy

Substance: A/Singapore/INFIMH-16-0019/2016 hemagglutinin with a C-terminal sfGFP, GCN4 trimerization domain and Strep-tag
- stoichiometry N: 3
